Source: patent US20220411483A1 (Chugai, published 2022)

T1: FcgRIIb (human, UniProt P31994 43-217)
T1 construct: extracellular domain; also called FcγRIIb
T1 sequence (looked up): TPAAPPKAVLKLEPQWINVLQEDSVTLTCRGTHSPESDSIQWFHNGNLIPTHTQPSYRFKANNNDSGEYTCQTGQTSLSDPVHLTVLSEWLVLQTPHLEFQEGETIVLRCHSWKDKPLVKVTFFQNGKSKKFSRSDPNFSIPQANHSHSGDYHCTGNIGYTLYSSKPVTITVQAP

T2: FcgRIIaR (human, UniProt P12318 34-217)
T2 construct: extracellular domain; also called FcγRIIa R type; FcγRIIa (R type)
T2 sequence (looked up): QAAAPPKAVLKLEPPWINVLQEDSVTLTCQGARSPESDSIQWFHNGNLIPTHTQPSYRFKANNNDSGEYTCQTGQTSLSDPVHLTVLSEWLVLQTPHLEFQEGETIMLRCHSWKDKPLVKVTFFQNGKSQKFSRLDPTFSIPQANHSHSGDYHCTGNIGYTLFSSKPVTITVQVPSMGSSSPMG

T3: human FcγRIIb extracellular domain with C-terminal His tag (human, UniProt P31994 43-217)
T3 construct: extracellular domain; also called FcgRIIb
T3 sequence (looked up): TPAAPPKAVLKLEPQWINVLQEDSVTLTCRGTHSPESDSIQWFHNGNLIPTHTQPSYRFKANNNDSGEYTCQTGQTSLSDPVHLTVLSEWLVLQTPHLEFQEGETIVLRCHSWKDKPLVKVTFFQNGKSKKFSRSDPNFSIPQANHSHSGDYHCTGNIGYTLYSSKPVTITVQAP

T4: human FcγRIIa R type extracellular domain with C-terminal His tag (human, UniProt P12318 34-217)
T4 construct: extracellular domain; also called FcgRIIaR
T4 sequence (looked up): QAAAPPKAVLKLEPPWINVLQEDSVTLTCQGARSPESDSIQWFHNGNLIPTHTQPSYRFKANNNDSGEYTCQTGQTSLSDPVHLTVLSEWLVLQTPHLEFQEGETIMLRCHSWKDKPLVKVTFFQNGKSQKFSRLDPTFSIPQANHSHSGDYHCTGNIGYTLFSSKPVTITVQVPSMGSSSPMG

T5: human FcγRIIa H type extracellular domain with C-terminal His tag (human, UniProt P12318 34-217)
T5 construct: extracellular domain; also called FcgRIIaH
T5 sequence (looked up): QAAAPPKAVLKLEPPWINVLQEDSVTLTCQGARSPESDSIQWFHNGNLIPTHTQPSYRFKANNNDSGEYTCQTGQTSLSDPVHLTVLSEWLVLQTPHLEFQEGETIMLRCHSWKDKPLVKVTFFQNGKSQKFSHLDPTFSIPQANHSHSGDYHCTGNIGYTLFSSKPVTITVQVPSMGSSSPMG

B1: IL6R-P786/IL6R-L (antibody, human IgG1, kappa)
heavy: QVQLQESGPGLVKPSETLSLTCAVSGHSISHDHAWSWVRQPPGEGLEWIGFISYSGITNYNPSLQGRVTISRDNSKNTLYLQMNSLRAEDTAVYYCARSLARTTAMDYWGEGTLVTVSSASTKGPSVFPLAPSSKSTSGGTAALGCLVKDYFPEPVTVSWNSGALTSGVHTFPAVLQSSGLYSLSSVVTVPSSSLGTQTYICNVNHKPSNTKVDKKVEPKSCDKTHTCPPCPAPELLGDDSVFLFPPKPKDTLMISRTPEVTCVVVDVSHEDPEVKFNWYVDGVEVHNAKTKPREEQYNATYRVVSVLTVLHQDWLNGKEYKCKVSNKGLPSSIEKTISKAKGQPREPQVYTLPPSRDELTKNQVSLTCLVKGFYPSDIAVEWESNGQPENNYKTTPPVLDSDGSFFLYSKLTVDKSRWQQGNVFSCSVMHEALHNHYTQKSLSLSP
light: not shown
B2: IL6R-P787/IL6R-L (antibody, human IgG1, kappa)
heavy: QVQLQESGPGLVKPSETLSLTCAVSGHSISHDHAWSWVRQPPGEGLEWIGFISYSGITNYNPSLQGRVTISRDNSKNTLYLQMNSLRAEDTAVYYCARSLARTTAMDYWGEGTLVTVSSASTKGPSVFPLAPSSKSTSGGTAALGCLVKDYFPEPVTVSWNSGALTSGVHTFPAVLQSSGLYSLSSVVTVPSSSLGTQTYICNVNHKPSNTKVDKKVEPKSCDKTHTCPPCPAPDLLGDDSVFLFPPKPKDTLMISRTPEVTCVVVDVSHEDPEVKFNWYVDGVEVHNAKTKPREEQYNATYRVVSVLTVLHQDWLNGKEYKCKVSNKGLPSSIEKTISKAKGQPREPQVYTLPPSRDELTKNQVSLTCLVKGFYPSDIAVEWESNGQPENNYKTTPPVLDSDGSFFLYSKLTVDKSRWQQGNVFSCSVMHEALHNHYTQKSLSLSP
light: not shown
B3: IL6R-P556/IL6R-L (antibody, human IgG1, kappa)
heavy: QVQLQESGPGLVKPSETLSLTCAVSGHSISHDHAWSWVRQPPGEGLEWIGFISYSGITNYNPSLQGRVTISRDNSKNTLYLQMNSLRAEDTAVYYCARSLARTTAMDYWGEGTLVTVSSASTKGPSVFPLAPSSKSTSGGTAALGCLVKDYFPEPVTVSWNSGALTSGVHTFPAVLQSSGLYSLSSVVTVPSSSLGTQTYICNVNHKPSNTKVDKKVEPKSCDKTHTCPPCPAPDLLGDDSVFLFPPKPKDTLMISRTPEVTCVVVDVSDEDGEVKFNWYVDGVEVHNAKTKPREEQYNSTYRVVSVLTVLHQDWLNGKEYKCKVSNKALPAPIEKTISKAKGQPREPQVYTLPPSRDELTKNQVSLTCLVKGFYPSDIAVEWESNGQPENNYKTTPPVLDSDGSFFLYSKLTVDKSRWQQGNVFSCSVMHEALHNHYTQKSLSLSP
light: not shown
B4: IL6R-P555/IL6R-L (antibody, human IgG1, kappa)
heavy: QVQLQESGPGLVKPSETLSLTCAVSGHSISHDHAWSWVRQPPGEGLEWIGFISYSGITNYNPSLQGRVTISRDNSKNTLYLQMNSLRAEDTAVYYCARSLARTTAMDYWGEGTLVTVSSASTKGPSVFPLAPSSKSTSGGTAALGCLVKDYFPEPVTVSWNSGALTSGVHTFPAVLQSSGLYSLSSVVTVPSSSLGTQTYICNVNHKPSNTKVDKKVEPKSCDKTHTCPPCPAPELLGDDSVFLFPPKPKDTLMISRTPEVTCVVVDVSDEDGEVKFNWYVDGVEVHNAKTKPREEQYNSTYRVVSVLTVLHQDWLNGKEYKCKVSNKALPAPIEKTISKAKGQPREPQVYTLPPSRDELTKNQVSLTCLVKGFYPSDIAVEWESNGQPENNYKTTPPVLDSDGSFFLYSKLTVDKSRWQQGNVFSCSVMHEALHNHYTQKSLSLSP
light: not shown
B5: IL6R-P787/IL6R-L (antibody, human IgG1, kappa)
heavy: QVQLQESGPGLVKPSETLSLTCAVSGHSISHDHAWSWVRQPPGEGLEWIGFISYSGITNYNPSLQGRVTISRDNSKNTLYLQMNSLRAEDTAVYYCARSLARTTAMDYWGEGTLVTVSSASTKGPSVFPLAPSSKSTSGGTAALGCLVKDYFPEPVTVSWNSGALTSGVHTFPAVLQSSGLYSLSSVVTVPSSSLGTQTYICNVNHKPSNTKVDKKVEPKSCDKTHTCPPCPAPDLLGDDSVFLFPPKPKDTLMISRTPEVTCVVVDVSHEDPEVKFNWYVDGVEVHNAKTKPREEQYNATYRVVSVLTVLHQDWLNGKEYKCKVSNKGLPSSIEKTISKAKGQPREPQVYTLPPSRDELTKNQVSLTCLVKGFYPSDIAVEWESNGQPENNYKTTPPVLDSDGSFFLYSKLTVDKSRWQQGNVFSCSVMHEALHNHYTQKSLSLSP
light: not shown
B6: IL6R-P785/IL6R-L (antibody, human IgG1, kappa)
heavy: QVQLQESGPGLVKPSETLSLTCAVSGHSISHDHAWSWVRQPPGEGLEWIGFISYSGITNYNPSLQGRVTISRDNSKNTLYLQMNSLRAEDTAVYYCARSLARTTAMDYWGEGTLVTVSSASTKGPSVFPLAPSSKSTSGGTAALGCLVKDYFPEPVTVSWNSGALTSGVHTFPAVLQSSGLYSLSSVVTVPSSSLGTQTYICNVNHKPSNTKVDKKVEPKSCDKTHTCPPCPAPDLLGGDSVFLFPPKPKDTLMISRTPEVTCVVVDVSHEDPEVKFNWYVDGVEVHNAKTKPREEQYNATYRVVSVLTVLHQDWLNGKEYKCKVSNKGLPSSIEKTISKAKGQPREPQVYTLPPSRDELTKNQVSLTCLVKGFYPSDIAVEWESNGQPENNYKTTPPVLDSDGSFFLYSKLTVDKSRWQQGNVFSCSVMHEALHNHYTQKSLSLSP
light: not shown
B7: IL6R-P786/IL6R-L (antibody, human IgG1, kappa)
heavy: QVQLQESGPGLVKPSETLSLTCAVSGHSISHDHAWSWVRQPPGEGLEWIGFISYSGITNYNPSLQGRVTISRDNSKNTLYLQMNSLRAEDTAVYYCARSLARTTAMDYWGEGTLVTVSSASTKGPSVFPLAPSSKSTSGGTAALGCLVKDYFPEPVTVSWNSGALTSGVHTFPAVLQSSGLYSLSSVVTVPSSSLGTQTYICNVNHKPSNTKVDKKVEPKSCDKTHTCPPCPAPELLGDDSVFLFPPKPKDTLMISRTPEVTCVVVDVSHEDPEVKFNWYVDGVEVHNAKTKPREEQYNATYRVVSVLTVLHQDWLNGKEYKCKVSNKGLPSSIEKTISKAKGQPREPQVYTLPPSRDELTKNQVSLTCLVKGFYPSDIAVEWESNGQPENNYKTTPPVLDSDGSFFLYSKLTVDKSRWQQGNVFSCSVMHEALHNHYTQKSLSLSP
light: not shown

Assays:
human complement C1q = molecular target: T6, human complement C1q (human, UniProt P02745 23-245; P02746 28-253; P02747 29-245); experiment: SPR, C1q bound per antibody captured on Protein L
T6 construct: Bought (PROSPEC or Calbiochem); also called human C1q
T6 sequence (P02745 23-245 limits assumed, chain 1 of 3): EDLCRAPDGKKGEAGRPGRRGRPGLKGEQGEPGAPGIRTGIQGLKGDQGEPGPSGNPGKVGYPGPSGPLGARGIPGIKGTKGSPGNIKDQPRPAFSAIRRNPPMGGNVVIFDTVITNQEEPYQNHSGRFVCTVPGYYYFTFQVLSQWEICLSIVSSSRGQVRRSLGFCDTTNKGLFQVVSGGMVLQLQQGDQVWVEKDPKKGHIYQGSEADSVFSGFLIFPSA
T6 sequence (P02746 28-253 limits assumed, chain 2 of 3): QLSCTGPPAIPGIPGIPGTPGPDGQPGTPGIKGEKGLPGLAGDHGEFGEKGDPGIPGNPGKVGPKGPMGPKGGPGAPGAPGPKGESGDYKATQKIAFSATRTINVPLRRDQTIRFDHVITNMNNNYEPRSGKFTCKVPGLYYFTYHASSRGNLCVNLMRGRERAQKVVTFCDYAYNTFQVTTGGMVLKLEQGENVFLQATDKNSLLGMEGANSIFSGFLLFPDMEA
T6 sequence (P02747 29-245 limits assumed, chain 3 of 3): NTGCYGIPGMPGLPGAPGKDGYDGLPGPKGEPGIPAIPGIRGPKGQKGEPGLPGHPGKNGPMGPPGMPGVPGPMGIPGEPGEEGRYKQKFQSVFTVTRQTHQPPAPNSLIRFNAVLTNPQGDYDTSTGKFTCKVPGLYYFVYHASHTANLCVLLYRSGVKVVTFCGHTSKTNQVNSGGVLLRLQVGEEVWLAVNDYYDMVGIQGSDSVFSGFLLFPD
Procedure, shortened: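 Antibodies captured on Protein L immobilized on a CM4 chip were exposed to human C1q diluted in HBS-EP+ running buffer at 25° C. C1q binding was normalized as C1q bound divided by antibody captured. The surface was regenerated with 10 mM glycine-HCl, pH 1.5.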

FcgRIIb = molecular target: T1, FcgRIIb; experiment: SPR, amount bound per captured antibody
FcgRIIaR = molecular target: T2, FcgRIIaR; experiment: SPR, amount bound per captured antibody
[1] = molecular target: T3, human FcγRIIb extracellular domain with …; experiment: SPR, antibody captured, FcgR analyte
[2] = molecular target: T7, human FcγRIa extracellular domain with C-terminal His tag (human, UniProt P12314 16-292); experiment: SPR, antibody captured, FcgR analyte
T7 construct: Whole entry named; also called FcgRIa
T7 sequence (P12314 16-292): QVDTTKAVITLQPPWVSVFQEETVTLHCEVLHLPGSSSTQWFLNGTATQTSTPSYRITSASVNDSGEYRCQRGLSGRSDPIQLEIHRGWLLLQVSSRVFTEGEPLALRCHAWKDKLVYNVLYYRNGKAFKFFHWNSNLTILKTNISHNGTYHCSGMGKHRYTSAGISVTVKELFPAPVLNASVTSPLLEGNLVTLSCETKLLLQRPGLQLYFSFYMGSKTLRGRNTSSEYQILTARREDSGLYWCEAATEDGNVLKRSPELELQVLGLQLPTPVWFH

[3] = molecular target: T4, human FcγRIIa R type extracellular …; experiment: SPR, KD of IL6R-G1d/IL6R-L divided by KD of variant
[4] = molecular target: T5, human FcγRIIa H type extracellular …; experiment: as above
[5] = molecular target: T8, human FcγRIIIa V type extracellular domain with C-terminal His tag (human, UniProt P08637 17-208); experiment: as above
T8 construct: extracellular domain; also called FcgRIIIaV
T8 sequence (P08637 17-208 F176V): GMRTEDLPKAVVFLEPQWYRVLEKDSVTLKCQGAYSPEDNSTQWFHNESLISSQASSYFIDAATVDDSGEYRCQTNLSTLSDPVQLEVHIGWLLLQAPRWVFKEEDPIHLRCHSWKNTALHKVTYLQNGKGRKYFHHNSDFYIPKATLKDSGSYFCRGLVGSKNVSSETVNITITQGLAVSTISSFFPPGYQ

[6] = molecular target: T3, human FcγRIIb extracellular domain with …; experiment: as above
[7] = molecular target: T7, human FcγRIa extracellular domain with …; experiment: as above
[8] = molecular target: T4, human FcγRIIa R type extracellular …; experiment: SPR, antibody captured, FcgR analyte

Row | Amount of C1q-binding when that for G1d is Defined as 100 (human complement C1q) [G1d=100] | Relative FcgRIIb-binding Activity (FcgRIIb) [IL6R-G1d/IL6R-L=100] | Relative FcgRIIaR-binding Activity (FcgRIIaR) [IL6R-G1d/IL6R-L=100] | Kd [1] [nM] | Kd [2] [nM] | Relative FcgRIIaR-binding Activity [3] | Relative FcgRIIaH-binding Activity [4] | Relative FcgRIIIaV-binding Activity [5] | Relative FcgRIIb-binding Activity [6] | Relative FcgRIa-binding Activity [7] | Kd [8] [nM] | Binder
1 | 12.9 | 62.4 | 11.5 |  |  |  |  |  |  |  |  | B1
2 |  |  |  | 4600 | 56 | 0.02 | 0.007 | 0.01 | 0.5 | 0.006 |  | B2
3 |  |  |  | 180 | 3.7 | 0.46 | 0.019 | 0.007 | 11.7 | 0.086 | 2400 | B3
4 |  |  |  | 210 | 11 | 0.39 | 0.021 | 0.009 | 10 | 0.029 | 2800 | B4
5 | 24 | 84 | 14.7 |  |  |  |  |  |  |  |  | B5
6 |  |  |  | 7900 | 23 | 0.01 | 0.007 | 0.009 | 0.3 | 0.014 |  | B6
7 |  |  |  | 8500 | 120 | 0.02 | 0.006 | 0.01 | 0.2 | 0.003 |  | B7
